Results as given in publication PMC11080051, “Melanoma-Derived DNA Polymerase Theta Variants Exhibit Altered DNA Polymerase Activity”.

Legend:
Test in all cases: EMSA; 6 mM MgCl2; EMSA: 10 mM Tris-HCl pH 7.5, 6 mM MgCl2, 100 mM NaCl, 10% glycerol, 0.1% NP-40; 10 nM DNA, 0-1000 nM protein, 1 h at room temperature; 6% native PAGE
Settings in all cases: protein: recombinant; tags: 6xHis-SUMO, cleaved off; label: 5'-6-FAM on primer; 22 bp; 5' overhang 18 nt on template; 5' overhang 3 nt (TTT) on primer
[1] = molecular target: T1, DNA polymerase theta polymerase domain (PolQM1), WT (Homo sapiens, UniProt O75417 1792-2590)
T1 sequence: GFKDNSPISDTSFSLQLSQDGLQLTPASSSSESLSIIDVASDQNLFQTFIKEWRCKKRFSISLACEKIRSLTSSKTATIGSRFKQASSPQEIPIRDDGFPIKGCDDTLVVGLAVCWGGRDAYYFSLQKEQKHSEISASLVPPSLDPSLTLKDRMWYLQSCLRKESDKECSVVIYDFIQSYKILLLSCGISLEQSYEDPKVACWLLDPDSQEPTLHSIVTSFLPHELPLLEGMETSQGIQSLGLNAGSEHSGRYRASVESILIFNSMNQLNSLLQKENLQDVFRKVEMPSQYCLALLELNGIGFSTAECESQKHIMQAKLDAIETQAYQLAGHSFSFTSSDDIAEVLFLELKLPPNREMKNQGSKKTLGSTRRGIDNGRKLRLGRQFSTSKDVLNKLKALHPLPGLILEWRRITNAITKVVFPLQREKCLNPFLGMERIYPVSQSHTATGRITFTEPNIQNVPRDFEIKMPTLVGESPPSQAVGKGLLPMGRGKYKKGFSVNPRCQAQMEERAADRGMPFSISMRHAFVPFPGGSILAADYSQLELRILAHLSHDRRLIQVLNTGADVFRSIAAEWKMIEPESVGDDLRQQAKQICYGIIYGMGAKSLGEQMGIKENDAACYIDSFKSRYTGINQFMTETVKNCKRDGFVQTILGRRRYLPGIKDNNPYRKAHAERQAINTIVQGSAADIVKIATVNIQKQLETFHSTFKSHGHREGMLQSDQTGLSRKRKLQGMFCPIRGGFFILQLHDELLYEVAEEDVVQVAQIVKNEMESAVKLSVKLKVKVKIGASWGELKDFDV

[2] = molecular target: T2, DNA polymerase theta polymerase domain (PolQM1), E2406K (Homo sapiens, UniProt O75417 1792-2590, E2406K)
T2 sequence: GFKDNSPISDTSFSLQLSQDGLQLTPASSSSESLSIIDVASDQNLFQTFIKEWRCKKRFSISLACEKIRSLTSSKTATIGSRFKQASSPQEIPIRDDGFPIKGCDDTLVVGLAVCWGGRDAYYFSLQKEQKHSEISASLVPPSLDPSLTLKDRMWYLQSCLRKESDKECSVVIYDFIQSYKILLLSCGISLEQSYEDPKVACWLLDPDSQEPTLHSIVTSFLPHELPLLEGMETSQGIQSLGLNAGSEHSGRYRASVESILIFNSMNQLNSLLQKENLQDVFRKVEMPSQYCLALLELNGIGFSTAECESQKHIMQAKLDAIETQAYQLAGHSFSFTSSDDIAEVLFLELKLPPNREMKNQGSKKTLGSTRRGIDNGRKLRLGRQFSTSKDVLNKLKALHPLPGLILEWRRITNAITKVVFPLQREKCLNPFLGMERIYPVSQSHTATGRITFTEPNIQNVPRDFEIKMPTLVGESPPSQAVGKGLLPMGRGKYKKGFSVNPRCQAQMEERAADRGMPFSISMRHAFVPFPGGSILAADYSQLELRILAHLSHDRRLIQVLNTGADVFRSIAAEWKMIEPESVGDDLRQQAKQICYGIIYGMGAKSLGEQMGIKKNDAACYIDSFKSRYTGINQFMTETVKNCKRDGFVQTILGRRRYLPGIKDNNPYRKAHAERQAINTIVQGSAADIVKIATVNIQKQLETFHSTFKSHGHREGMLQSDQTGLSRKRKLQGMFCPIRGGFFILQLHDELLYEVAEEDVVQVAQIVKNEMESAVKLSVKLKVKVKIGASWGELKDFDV

[3] = molecular target: T3, DNA polymerase theta polymerase domain (PolQM1), T2161I (Homo sapiens, UniProt O75417 1792-2590, T2161I)
T3 sequence: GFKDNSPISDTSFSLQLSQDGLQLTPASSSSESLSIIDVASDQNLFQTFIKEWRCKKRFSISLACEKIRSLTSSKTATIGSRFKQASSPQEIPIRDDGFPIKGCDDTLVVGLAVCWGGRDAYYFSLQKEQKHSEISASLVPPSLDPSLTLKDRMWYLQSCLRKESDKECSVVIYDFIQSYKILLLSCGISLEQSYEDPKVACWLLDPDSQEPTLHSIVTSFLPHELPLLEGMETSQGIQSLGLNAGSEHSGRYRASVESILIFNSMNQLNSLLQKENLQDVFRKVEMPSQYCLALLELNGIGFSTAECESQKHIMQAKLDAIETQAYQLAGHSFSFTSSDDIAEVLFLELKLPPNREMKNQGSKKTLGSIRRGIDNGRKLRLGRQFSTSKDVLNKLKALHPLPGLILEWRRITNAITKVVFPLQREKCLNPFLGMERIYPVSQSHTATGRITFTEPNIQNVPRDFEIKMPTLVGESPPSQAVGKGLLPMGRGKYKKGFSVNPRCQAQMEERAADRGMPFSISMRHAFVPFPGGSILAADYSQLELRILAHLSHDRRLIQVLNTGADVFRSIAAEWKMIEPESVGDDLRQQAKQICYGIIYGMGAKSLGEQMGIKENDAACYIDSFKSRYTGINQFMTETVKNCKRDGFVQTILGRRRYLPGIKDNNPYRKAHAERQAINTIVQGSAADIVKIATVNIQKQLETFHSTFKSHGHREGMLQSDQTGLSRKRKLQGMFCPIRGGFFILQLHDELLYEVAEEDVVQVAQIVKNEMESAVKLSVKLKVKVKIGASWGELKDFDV

[4] = molecular target: T4, DNA polymerase theta polymerase domain (PolQM1), L2538R (Homo sapiens, UniProt O75417 1792-2590, L2538R)
T4 sequence: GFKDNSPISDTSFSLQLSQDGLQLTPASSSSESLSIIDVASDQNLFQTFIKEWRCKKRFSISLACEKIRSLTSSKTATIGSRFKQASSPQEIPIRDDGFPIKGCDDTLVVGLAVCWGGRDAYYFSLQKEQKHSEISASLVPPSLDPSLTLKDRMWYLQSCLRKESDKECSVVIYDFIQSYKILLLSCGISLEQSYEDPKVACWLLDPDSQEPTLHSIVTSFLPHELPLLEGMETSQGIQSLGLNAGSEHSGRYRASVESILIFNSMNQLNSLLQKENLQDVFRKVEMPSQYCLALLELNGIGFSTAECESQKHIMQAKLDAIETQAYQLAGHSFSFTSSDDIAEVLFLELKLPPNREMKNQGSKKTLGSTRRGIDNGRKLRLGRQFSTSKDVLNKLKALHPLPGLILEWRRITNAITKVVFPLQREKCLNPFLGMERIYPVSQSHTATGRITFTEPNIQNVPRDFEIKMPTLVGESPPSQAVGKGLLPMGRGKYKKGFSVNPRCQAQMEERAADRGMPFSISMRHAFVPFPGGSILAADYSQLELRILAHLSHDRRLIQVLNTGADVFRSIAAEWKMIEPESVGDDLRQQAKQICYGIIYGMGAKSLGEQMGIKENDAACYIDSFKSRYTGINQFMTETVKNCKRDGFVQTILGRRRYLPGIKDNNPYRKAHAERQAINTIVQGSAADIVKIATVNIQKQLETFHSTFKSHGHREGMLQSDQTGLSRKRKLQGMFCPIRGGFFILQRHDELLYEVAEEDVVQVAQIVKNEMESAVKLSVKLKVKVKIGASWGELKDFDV

B1: 25/40 primer-template duplex (CG template) (dsDNA)
DNA 1: TTTGCCTTGACCATGTAACAGAGAG
DNA 2: TCTCTTCTCTCACTCACGCTCTCTGTTACATGGTCAAGGC
For B1, the Kd [1] was 18 ± 3 nM, the Kd [2] was 14 ± 3 nM and the Kd [3] was 13 ± 3 nM. It also gave a Kd [4] of 18 ± 4 nM.
